{"source": "patent US20060026702A1", "about": "“Phosphoinositide 3-kinase mediated inhibition of GPCRs” (DUKE UNIVERSITY, priority 2002, published 2006)", "molecules": {"B1": {"name": "HEAT: 197 amino acid HEAT domain of PI3Kγ, FLAG epitope-tagged (SEQ ID NO: 2), overexpressed in cells (protein, listed as Homo sapiens)", "chain": "MDYKDDDDKHPIALPKHQPTPDDRVRAEMPNQLRKQLEAIIATDTAEDKELLWHFRYESLKHPKAYPKLFSSVKWGQQEIVAKTYQLLARREVWDQSALDVGLTMQLLDCNFSDENVRAIAVQKLESLEDDDVLHYLLQLVQAVKFEPYHDSALARFLLKRGLRNKRIGHFLFWFLRSEIAQSRHYQQRFAVILEAYLRGCGTA", "modifications": "FLAG tag"}}, "key": {"β2AR complex": {"tested_on": "β2AR complex", "assay": "Recruitment of AP-2 adaptin and clathrin to the agonist-stimulated β2AR complex (immunoprecipitation, immunoblot)", "format": "cell-based", "conditions": "HEAT co-transfected", "protocol": "Immunoblotting and Detection—Immunoblotting and detection of PI3K, βARK1, HA-PI3Kγ, HA-ΔPI3Kγ, Myc-PI3Kα, FLAG-HEAT, PI3KΔHEAT-HA, FLAG-β2AR, HA-β2AR, β-adaptin and clathrin was carried out as previously described. Immunoprecipitating antibodies were added to 500 μg of cell lysate in lysis buffer followed by the addition of 35 μl of 1:1 Protein A- or G-agarose. Samples were rocked overnight at 4° C. then centrifuged at 12,000×g for 5 min. Immunoprecipitates were washed twice with lysis buffer, twice with 1×PBS and resuspended in 1×SDS-gel loading buffer. Proteins were resolved by SDS-polyacrylamide gel electrophoresis and blotted on to PVDF membrane (Bio-Rad). Blots were incubated with antibodies recognizing PI3K, Myc (Santa-Cruz), β-adaptin, clathrin heavy chain (BD Transduction Laboratories), HA (Roche Molecular Biochemicals) and FLAG (Sigma) at 1:2000 dilution and the βARK1 monoclonal antibody at 1:10,000 dilution. Blots were subsequently incubated with appropriate secondary antibody (1:2000 dilution) conjugated to horseradish peroxidase (Amersham Pharmacia Biotech) and detection was carried out using enhanced chemiluminescence. […]\nThe present inventors determined that βARK1-mediated localization of PI3K within the activated receptor complex is responsible for the generation of D-3 phosphatidylinositols necessary for the efficient recruitment of adaptin to the P2AR complex. […]"}, "βARK1/PI3K interaction": {"biological_target": "T1, βARK1/PI3K interaction (Bos taurus, UniProt P21146)", "T1 construct": "recognizes both full length βARK1 and the βARKct; expressed in transfected cells; host or cells: HEK 293", "T1 sequence (P21146 1-689)": "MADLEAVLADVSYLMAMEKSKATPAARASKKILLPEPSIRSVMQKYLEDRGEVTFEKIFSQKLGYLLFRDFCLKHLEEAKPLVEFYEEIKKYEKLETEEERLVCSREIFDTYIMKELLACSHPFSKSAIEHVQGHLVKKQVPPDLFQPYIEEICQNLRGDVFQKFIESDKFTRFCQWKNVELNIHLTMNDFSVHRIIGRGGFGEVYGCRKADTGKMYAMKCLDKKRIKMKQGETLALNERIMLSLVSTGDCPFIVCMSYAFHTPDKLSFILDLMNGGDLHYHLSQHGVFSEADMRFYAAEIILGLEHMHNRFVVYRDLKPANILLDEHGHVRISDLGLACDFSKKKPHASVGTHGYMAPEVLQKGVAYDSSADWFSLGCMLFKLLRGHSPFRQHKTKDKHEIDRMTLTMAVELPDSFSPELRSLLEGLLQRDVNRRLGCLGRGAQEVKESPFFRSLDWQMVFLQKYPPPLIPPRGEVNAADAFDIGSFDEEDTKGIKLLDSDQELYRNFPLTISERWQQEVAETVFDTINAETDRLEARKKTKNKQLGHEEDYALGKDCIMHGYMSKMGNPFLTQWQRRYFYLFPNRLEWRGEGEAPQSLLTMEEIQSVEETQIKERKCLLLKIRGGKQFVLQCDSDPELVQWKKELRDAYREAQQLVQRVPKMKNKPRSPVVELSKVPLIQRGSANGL", "assay": "βARK1 associated PI3K activity in HEK 293 cells co-transfected with HEAT or PI3KΔHEAT", "format": "cell-based", "protocol": "The present inventors determined that overexpression of the 197 amino acid HEAT domain of PI3K competed for endogenous PI3K binding to βARK1 in living cells. HEK 293 cells were co-transfected with plasmids containing the βARK1 cDNA (2 μg) and increasing concentrations of the HEAT domain cDNA (ranging from 0 to 6 μg). […] The maximal reduction of βARK1 associated PI3K activity occurred when cells were co-transfected with 4 μg of HEAT cDNA (FIG. 9B). Summary results of n=5 experiments. *, p<0.0005. The data was normalized to βARK1 associated PI3K activity in cells transfected with βARK1 only. Furthermore, FLAG tagged HEAT protein co-immunoprecipitated with βARK1 monoclonal antibodies in the co-transfected HEK 293 cells.\nThe absence of the HEAT domain in an otherwise intact PI3K molecule affected the association of βARK1 with endogenous PI3K in cells. HEK 293 cells were co-transfected with plasmids containing cDNAs for βARK1 (2 μg), βARK1 plus HEAT (4 μg), and βARK1 plus PI3KΔHEAT (4 μg). Cell lysates were immunoprecipitated with a βARK1 monoclonal antibody and assayed for the associated PI3K activity. Expression of PI3KΔHEAT had no effect on the endogenous βARK1/PI3K interaction, whereas overexpression of HEAT abolished this interaction (FIGS. 9C and 9D). […] The data was normalized to βARK1 associated PI3K activity in cells transfected with βARK1 only.\nCytosolic and membrane fractions were prepared and analyzed for βARK1 associated PI3K activity. […] Membrane fractions were prepared from the HEK293 cells co-transfected with the βARK1 (2 μg), βARK1 and HEAT domain (4 μg) containing plasmids."}}}
{"molecule": "B1", "values": [{"measurement": "recruitment of adaptin to the agonist-stimulated β2AR complex", "setting": "β2AR complex; 10 μM isoproterenol 0-10 min", "result": "completely abolished"}, {"measurement": "clathrin co-immunoprecipitated with the receptor after agonist", "setting": "β2AR complex", "result": "attenuated"}, {"measurement": "endogenous βARK1/PI3K interaction", "setting": "βARK1/PI3K interaction; 4 μg cDNA co-transfected with βARK1", "result": "abolished"}, {"measurement": "agonist-induced translocation of PI3K to the membrane", "setting": "βARK1/PI3K interaction; 10 μM isoproterenol 2 min, HEAT 4 μg", "result": "effectively abolished"}, {"measurement": "βARK1 associated PI3K activity with increasing HEAT cDNA", "setting": "βARK1/PI3K interaction; HEAT cDNA 0 to 6 μg", "result": "effectively competed away"}]}
